Source: CN113501872A (INST PATHOGEN BIOLOGY CAMS, dated 2021)

Target: SARS-CoV-2刺突蛋白RBD区重组蛋白 (SARS-CoV-2, UniProt P0DTC2 319-541)
Assay: indirect ELISA, RBD protein coated, Fab supernatant

B1: 人源抗SARS-CoV-2病毒Fab抗体SK1 (Fab, V domains shown)
VH: EVQLVESGGGLVQPGRSLRLSCAASGFIFDDYAMHWVRQAPGKGLEWVSGISWNSGTIGYADSVKGRFIISRDNAKNSLYLQLNRLGVEDTALYYCVKDIYYRDRNLGFAFDIWGQGTMVTVSS
VL: DIQLTQSPSSLSASIGDTVTITCRASQSIDNYLHWYQKKPGIAPKLLISATSTLENGVPSRFSGSRSGTDFTLTISSLQIEDFATYYCQQGHSVPLTFGGGTKLEVR
notes: also called SK1 Fab
B1: binds.
